B1: Compound CE1 Ac-Arg-Tyr-Tyr-Arg-Trp-Lys-NH2 (peptide)
peptide: Ac-RYYRWK-NH2
notes: Unconjugated comparison hexapeptide; also called Ac-RYYRWK-NH2

Legend:
[1] = tested on: conscious Sprague Dawley rats; format: in vivo, rat
Protocol: In the conscious rat model, the animal is chronically instrumented with catheters in the urinary bladder, the femoral artery, and the femoral vein. The animal receives a continuous i.v. infusion with isotonic saline, 50 μl/min. Urine is collected in vials in consequtive urine collection periods of 10 min each. After two control periods, the test compound is administered and fractionated urine collections (10 min periods) are continued for at least two hours. Urinary concentrations of sodium and potassium are determined by flame photometry (Instrumentation Laboratory 943) using caesium as internal standard.
The diuretic effect of the peptide conjugates of the invention has been tested in conscious rats, where Compound 1 elicits a powerful and sustained diuretic response. Cardiovascular and renal responses produced by i.v. infusion of nociceptin (Phoenix Pharmaceuticals) and Compound 1 have been studied in conscious Sprague Dawley rats. The results are shown in FIGS. 2 to 8 wherein HR is heart rate, MAP is mean arterial pressure, V is urine flow rate, UNaV is urinary excretion rate of sodium, RSNA is renal sympathetic nerve activity expressed as % of the control level, Cosm is the osmolar clearance, and CH2O is free water clearance.
Furthermore, the effects of i.v. bolus administration of nociceptin (30 and 100 nmol/kg, Phoenix Pharmaceuticals) and nociceptin-NH2 (30 nmol/kg) on heart rate, arterial pressure and RSNA were studied in groups of 6 conscious Sprague-Dawley rats.
[…] After stabilization of urine flow rate and urinary sodium excretion, urine was collected during a 20-min control period. After this, the i.v. bolus injection was given or the i.v. infusate was switched to a solution of isotonic saline containing Compound 1 (i.v. infusion experiments). From the time of drug administration, experimental urine samples (10-min consecutive periods) were taken for 80 min.
One hour prior to the start of each experiment a food pellet (standard rodent chow) was placed within access to the rat though a hole in the rat holder. The number and time of feeding responses (i.e., times in which the rat began to eat the food pellet) was recorded before, and after drug administration. If a positive feeding response was observed, the pellet was removed from the restrainer to prevent feeding-induced alterations in heart rate and/or mean arterial pressure. At 10-min intervals, the food pellet was presented to the rat to determine the duration of the feeding response.

mouse vas deferens = test: Mouse vas deferens assay: inhibition of electrically-induced contraction; conditions: cumulative addition; data not shown
From the text: The compounds of the present invention are pharmacologically active, e.g. as nociceptin agonists or partial agonists, and a useful method of showing activity is described by Hughes J., Kosterlitz H. W., Leslie F. M.: Effect of morphine on adrenergic transmission in the mouse vas deferens. Assessment of agonist and antagonist potencies of narcotic analgesics^[4]. The isolated electrically stimulated mouse vas deferens preparation has been widely used to evaluate the functional pharmacological actions of opioid agonists and antagonists in vitro^[5].
The vas deferens from male NMRI albino mice weighing 30-40 g were placed in a SCHULER organ bath Type 809, Hugo Sachs Elektronik, Germany, and perfused with a 37° C., modified Krebs solution (NaCl 6,9 g/L, KCl 0.35 g/L, KH2PO4 0.16 g/L, NaHCO3 2.1 g/L, Glucose H2O 2.0 g/L, CaCl2 2.52 mL/L). The solution was gassed with carbogen (95% O2 and 5% CO2) throughout the experiment. The tissue was electrically stimulated through two silver electrodes directly in the organ bath using a HSE Stimulator I Type 215. Stimulation of the tissue was performed by applying a supramaximal voltage (15 Volts) in trains of 10 square pulses every 60 s, each of 1 ms duration with a frequency of […]. Concentration-response curves were performed by adding test substances that relax mouse vas deferens smooth muscles cumulatively to the organ baths. The test substances used in the assay were nociceptin in an isotonic saline solution, Compound 1 (as the trifluoroacetate in an isotonic saline solution), Compound 2 (as the trifluoroacetate in an isotonic saline solution), and the hexapeptide Ac-RYYRWK-NH2 (SEQ ID NO: 1) (as the trifluoroacetate in an isotonic saline solution).

human ORL1 receptor [2] = target: T1, human ORL1 receptor (human, UniProt P41146 1-370); test: binding to hORL1 receptor expressed in CHO cells, one experiment
T1 construct: whole, on cells; also called hORL1 receptor; human nociceptin receptor

human ORL1 receptor [3] = target: T1, human ORL1 receptor; test: cell-based or functional assay

T1 sequence (P41146 whole entry): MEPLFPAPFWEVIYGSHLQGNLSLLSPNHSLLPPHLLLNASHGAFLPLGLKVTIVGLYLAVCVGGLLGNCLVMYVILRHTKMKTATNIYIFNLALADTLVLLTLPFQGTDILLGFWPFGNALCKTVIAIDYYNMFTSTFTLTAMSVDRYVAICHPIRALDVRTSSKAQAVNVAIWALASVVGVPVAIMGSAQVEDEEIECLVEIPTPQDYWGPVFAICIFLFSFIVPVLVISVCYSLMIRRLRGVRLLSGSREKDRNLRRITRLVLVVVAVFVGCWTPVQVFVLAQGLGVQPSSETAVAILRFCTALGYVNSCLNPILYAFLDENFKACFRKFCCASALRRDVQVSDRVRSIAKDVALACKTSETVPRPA

| Molecule | IC50 (human ORL1 receptor [2]) [nM] | Efficacy EC50 (nM), inhibition of forskolin-induced cAMP formation (human ORL1 receptor [3]) [nM] | other results |
| --- | --- | --- | --- |
| CC(C)C[C@H](NC(=O)[C@H](CCCCN)NC(=O)[C@H](CCCN=C(N)N)NC(=O)[C@H](C)NC(=O)[C@H](CO)NC(=O)[C@H](CCCCN)NC(=O)[C@H](CCCN=C(N)N)NC(=O)[C@H](C)NC(=O)CNC(=O)[C@@H](NC(=O)[C@H](Cc1ccccc1)NC(=O)CNC(=O)CNC(=O)[C@@H](N)Cc1ccccc1)[C@@H](C)O)C(=O)N[C@@H](C)C(=O)N[C@@H](CC(N)=O)C(=O)N[C@@H](CCC(N)=O)C(=O)O [nociceptin, reference compound] |  |  | heart rate, arterial pressure and RSNA ([1]; i.v. bolus 30 and 100 nmol/kg, data not shown): rapid bradycardia, a hypotensive response and initial RSNA suppression; MAP response ([1]; i.v. infusion 11 nmol/kg/min, FIG. 2): significantly decreases MAP |
| Ac-KKKKKKRYYRWK-NH2 [Compound 2] |  |  | potency order for inhibition of electrically-induced contraction of the mouse vas deferens (mouse vas deferens): nociceptin>Compound 1=Compound 2>>Ac-RYYRWK-NH2 |
| Ac-KKKKKKKWRYYR-NH2 [Compound 6 Ac-Lys-Lys-Lys-Lys-Lys-Lys-Lys-Trp-Arg-Tyr-Tyr-Arg-NH2] | 115 | 135 |  |
| H-NEEEEERYYRWKKKKKKK-NH2 [Compound 3 H-Asn-Glu-Glu-Glu-Glu-Glu-Arg-Tyr-Tyr-Arg-Trp-Lys-Lys-Lys-Lys-Lys-Lys-Lys-NH2] | 235 | 83 |  |
| B1 | 0.31 | 0.41 |  |
| Ac-RYNRWKKKKKKK-NH2 [Compound 4 Ac-Arg-Tyr-Asn-Arg-Trp-Lys-Lys-Lys-Lys-Lys-Lys-Lys-NH2] |  | 91 |  |
| Ac-KYYRWKKKKKKK-NH2 [Compound 9 Ac-Lys-Tyr-Tyr-Arg-Trp-Lys-Lys-Lys-Lys-Lys-Lys-Lys-NH2] | 3.7 | 0.035 |  |
| Ac-RYYRWKAKKKKK-NH2 [Compound 11 Ac-Arg-Tyr-Tyr-Arg-Trp-Lys-Ala-Lys-Lys-Lys-Lys-Lys-NH2] | 0.27 |  |  |
| Ac-RYYRIKKKKKKK-NH2 [Compound 10 Ac-Arg-Tyr-Tyr-Arg-Ile-Lys-Lys-Lys-Lys-Lys-Lys-Lys-NH2] | 0.51 |  |  |
| Ac-RYYRWKKKKKK-NH2 [Compound 12 Ac-Arg-Tyr-Tyr-Arg-Trp-Lys-Lys-Lys-Lys-Lys-Lys-NH2] | 0.15 |  |  |

Source: patent US7550425B2, “Diuretic peptide conjugates” (Zealand Pharma A/S, priority 2000, dated 2009)
